Assay results: the DeepSol protein solubility set

Test: soluble on expression in E. coli; label from the status in PepcDB or PDB records

| Sequence | soluble on expression in E. coli |
| --- | --- |
| ANGLFYSLRGNFSFARNKIIENDEPKPKYEYQDARGRRIDQTFGLVALGFFKDQDDIKNSPKQTFQSTVRPGDIKYKDINGDGVVDEYDKVAIGDPRTPEIMFGFGGTVAYKNFDVSLFFTGAAKTSFFLEGATVYPFLNGEGTWNVLREVYDNRWTSETAATAKYPIVLNANSYNNYQTSTMYMRNGSYLRLKSAEIGYTFKGRLIDKMFMDNIRLFCNGQNLLTLDYIKIVDPESNNGVGNYPMQRTINFGFQINFK | not soluble |
| MGSDKIHHHHHHMQLEELINQHYSKLNDNDFHILKYILNHKHTCYHLGIDALAKACSVSRSSILRLAQKLGFSGYSEFRVFLKWEDQPEEGESMSFEKLLDDIEANLKFLRTKDMTDMCQLIDAADRIFVYGSGNAQKICARDLQRMFIPRHRYLILIEDTNEFNLMRDDFKVNDLFIIISLSGETPELIPQARMLSAKGIPFISITNLKNNVLAQLTPHNLYATSKPVTLSDRTEIVAFAPFFLVGEALFRAYVDYKEAEKNDNE | not soluble |
| MGSDKIHHHHHHMRNLNEKMKDIFERSVEDIKERNQNLLRPEHILLQILYDENEATKVLKDLNVNVEEVITELEDYIDSQYGIYYGFSDQVYVSKELSYILELARKEARLFKQKDIGPLHFLLGLLRDGSTHAARVLKKYGVDYEKVLQTVKEHEEEYAAEQSPLTAFATDLTKLAKEGKVGPIIGRDREIERVIEILMRKTKNNPILIGDPGVGKTAIVEGLAQRIVEGKVPDPLKDVRILMVDLGRMIAGTKYRGEFEERLKSFLDEVMKQKEKTILFIDEIHTLVGAGAAEGAMDAANMLKPALARGEIRVIGATHWMSTENT | not soluble |
| KTFAALGSGVIGSGWIARALAHGLDVVAWDPAPGAEAALRARVANAWPALRKQGLAPGAAQERLRFVASIEECVGDADFIQESAPERLDLKLDLHARISAAARPDVLIGSSTSGLLPSEFYAEASHPERCLVGHPFNPVYLLPLVEVVGGERTAAEAVRAAMRVYESLGMRPLHVRKEVPGFIADRLLEALWREALHLVNDGVATTGEIDDAIRFGAGLRWSFMGTFLTYTLAGGNAGMRHFMAQFGPALQLPWTYLPAPELTEALIDRVVEGTAEQQGARSIAELERYRDDCLLAVLGAIRETKARHGFA | not soluble |
| GQNHHEVVKFMDVYQRSYCHPIETLVDIFQEYPDEIEYIFKPSCVPLMRCGGCCNDEGLECVPTEESNITMQIMRIKPHQGQHIGEMSFLQHNKCECRPKKD | soluble |
| MTDNTRLRIAMQKSGRLSDDSRELLARCGIKINLHTQRLIAMAENMPIDILRVRDDDIPGLVMDGVVDLGIIGENVLEEELLNRRAQGEDPRYFTLRRLDFGGCRLSLATPVDEAWDGPLSLNGKRIATSYPHLLKRYLDQKGISFKSCLLNGSVEVAPRAGLADAICDLVSTGATLEANGLREVEVIYRSKACLIQRDGEMEESKQQLIDKLLTRIQGVIQARESKYIMMHAPTERLDEVIALLPGAERPTILPLAGDQQRVAMHMVSSETLFWETMEKLKALGASSILVLPIEKMME | soluble |
| MSLEQNFIRLYQDSFREHWALPALTNYDTKESYTYGEMAADIARRHLLFERIGLKPGDKVALLGKDSAEWCMAFMSVITYGAIIVPVLPDFNAADAASIVTHSDAKYLFVSDKIWETMDPSQLLLLCGAVSIRDYTVFLDRTEGGLLSQEVEGLSRSFSEHYPSGFTAEDIRYAEVSNDDLILLNYTSGTTGFSKGVMLRANNLAGNVTYVKDRDIMFRGETILCFLPLAHTYSCAFNFLTPLTIGVHVYILGKIPSPLTLIKAFADVRPSFVIMVPLIIEKLYHKAIAPKIKTPLIKFLLRLPVLKKVIHKSIRSKLIESFGGNFRQIIIGGAALNDEVAHFLYRIGFPLTVGYGMTECGPLISYEDHSLWLPGSCGKSLSIMEVRIDHSGQERHSDSGDVGEIQVRGENVCLGYYKNAELTAELFTPDGWMRTGDLGTIDSLGNIFIKGRSKTMLLGSNGQNIYPEEIESKINNLSYVLESIVTERDGRLIALIVPDRQAIEHKGISPDQAWAYIERSRAELNGQVGAYEKITAFVRHDEEFEKTPKHSIKRFLYTEGHHHHHH | soluble |
| HNGWTWEASLNLSANRNKLTELASGSKDDKANNWFVGHPIDCIYDYEKVGLWNSDDPDFQYLDILEPGGNEGMIKVKYTGDRDASGKPTRAIGPEDRQIISLEPKFQGGFSTRVAYKGFDLNVITAFRCGGKLISTLHHSNGYLNMLTGRRGQVDVDYWTPENKGAKYPKPGGIQSGDNPKYGSTLGYFDSSYWKVRNITLGYNFEKQAWLTRMGIQSLRAYLSVQNPFIICSPFHKETGLDPETNSYGNENVAVTEGIQKRFLTVGTNSPSTRNYLFGINLTF | not soluble |
| MESVESAARDYRETLAELRNNNKTQINLLTILADDFKKAAPQIVEVIERHLTTCSPSQKLLVMYVCDSILKNVKKPNDYDALFARKIVSMFEHAFRQGDERIRTSLYRIRVTWASTTLFMPSKLYELDMKINKLDPNWPISNPQTGRALRDDPQVMAPSQSRPAGNATSPAASTSTNRVFVNPKFIGSSTPGAASASKTVVEKTKSPGTVNKEKQVKKEPKQDPLDKLLPSSSASKTSSSPAGLKRKSAPSEHPNAPIRKKPQQPPKPQTAIDEDLRSISLTKKPPVPSAQDQDFRPKTLKPTSVIGSHAFAPVAAPIRPMIPVPPPVSVAPFVPAPPLSSAPPFQHPQQHHPQLPPPPVHQGMGRGYHHNSPPQDPAPIVPVQAPPPQQHLPAPENVYSSEQPKLDVPANNRIFVDGKAYEVMFVDDTAVIERGGAPHRIYFAGPPRNLVIDGIPHLLQFDTPTQIDILGSKHMVKFGAPSRELYIGGHPFKGQFGGPPIIATINGRRHEIRLTGSAPEVRIEPEPAYHLTHFLHKMREEKKIEIASEKPEKKEDWLSYLKNLRTRNILPAPARSPSSPRNQTPPPANLPIPGMNNAGQRGGYHNRHQPQQNARWGGANKQQNIPPPPSDPSPIGSGVEKRSAPPAAITDFNIRLLQIRYDSVVDALITKRADACKFCGMRLDDSQGKSKEWQDHMDWHVKQNLARHGSNNSAAVPYRQWYPSTSTWLTPRASDETNEQEADKPEEPLPGVASSGVKTKECSVCGEKFDEYYDDDEETWRLRDTVNVHGKIVHSACASDAARSLDNSSFFNDSDIKKEEPFD | not soluble |
| MDKSLLLELPILLCCFRALSGSLSMRNDAVNEIVAVKNNFPVIEIVQCRMCHLQFPGEKCSRGRGICTATTEEACMVGRMFKRDGNPWLTFMGCLKNCADVKGIRWSVYLVNFRCCRSHDLCNEDL | not soluble |
| MGSDKIHHHHHHMAQIIAVHSFRGGTGKSNLIANMAATMALQGQRVGIIDTDIQSPGIHVIFGINENKMERTLNDYLWGYCNIKDAAYDVTEALAIEQGNTSTVKGSLHLVPCSIKASEIARVLREGYDVVRLNDGFQEFIRSLKLDYLLIDTHPGLNEETLLSIGISNVLVILLRPDHQDFQGTAVTVDVARKLKVPKMLLVINKVLPSLNFLDLQQQVEKIYNAPVVGILPLSEDMVQLASKGLFSLRYPQHPISQTIKGITNQIASLVVSH | not soluble |
| MSAKIYRPAKTAMQSGTAKTNVWVLEFDAEVPRKIDPIMGYTSSSDMKQQVKLTFETQEQAEAYAQRKGIEYRVILPKEATRKVVSYTDNFRFNRTQPWTHLEHHHHHH | soluble |
| MAFHMPLKELQPVDTSLPEHVVKGAVVIDKEFTIWNHRAVIPSNALHTVFITINLLEQKLTDVVKMAARSMNLSEDDSYGLMADKPKRFITDDNLNSLGSGFILTLCASPDHYVKRITEILTEGNNISQMENAVKTLDEFSLDPALIEAFYRCSSLELLFSLIRDDRVCMSSTLLSTCLRALSSMLELAVGDFTWKSVPNDVVVSMASLVTGKAKREEANTLLAALQMLEQLVIGDDTTRDWILEEVPIETLIRHVEKSDERIALCALSLMNSMIRRCPDDEKRFELIKSLEVVPFRNAVHSSLLRGGGGVRNLNAIEQLVEVQRSLISAYETSPPTDAEVQKILDIESSEDVSEEIREMWKSQIGEHRCGRLAAISMVQFAEKSPQDLRMLISENTMRIEGGKWQLIPMWMRCCDIAAELFRVIPGRDELDRLIVVLFSTETPFPAVFACIVHLFHRTWREMQAKGGEMEKVACVVLEQLRHVLKRREIQDVEELSADLETFSYRAMQEIWREEQLGKENIQLHSEAVIQLKSKLRPKMEELVRINHLNYLKLGAVFRKPQKSKSLAKLAFWHWKLDASEKMLTITGCDGENYVEGVQRDDIRQVWIKDIADVTNNDEIDRKASSSRFTSSPSTQMLRGIRVQLKTTNDMKEGEVLMALTSDETQSVIWLEGLAELIGSKAVKSETDAMVERMLKMELRVRLLNVKLTNPEEKPEIPPIPDDIKSFISKF | not soluble |
